In US20200078441A1 (TAIPEI VETERANS GENERAL HOSPITAL, published 2020):
Blank lines part the entries; values can stand above or below the binder they belong to.

Molecular target: T1, recombinant His-tagged AGO2 protein (human Argonaute 2, baculovirus-expressed) (human, UniProt Q9UKV8 1-859)
T1 construct: Expressed in High Five insect cells and purified on nickel resin; also called His-AGO2; HisAGO2
Test: PepSpot peptide array incubated with recombinant His-tagged AGO2 (2 µg), detected with anti-His-HRP
Protocol: The association rate constant (Kₐ), dissociation rate constant (Kd), and equilibrium dissociation constant (KD) were calculated and presented in the chart (bottom).

T1 sequence (Q9UKV8 other isoform, or with tags, fused parts or gaps limits assumed): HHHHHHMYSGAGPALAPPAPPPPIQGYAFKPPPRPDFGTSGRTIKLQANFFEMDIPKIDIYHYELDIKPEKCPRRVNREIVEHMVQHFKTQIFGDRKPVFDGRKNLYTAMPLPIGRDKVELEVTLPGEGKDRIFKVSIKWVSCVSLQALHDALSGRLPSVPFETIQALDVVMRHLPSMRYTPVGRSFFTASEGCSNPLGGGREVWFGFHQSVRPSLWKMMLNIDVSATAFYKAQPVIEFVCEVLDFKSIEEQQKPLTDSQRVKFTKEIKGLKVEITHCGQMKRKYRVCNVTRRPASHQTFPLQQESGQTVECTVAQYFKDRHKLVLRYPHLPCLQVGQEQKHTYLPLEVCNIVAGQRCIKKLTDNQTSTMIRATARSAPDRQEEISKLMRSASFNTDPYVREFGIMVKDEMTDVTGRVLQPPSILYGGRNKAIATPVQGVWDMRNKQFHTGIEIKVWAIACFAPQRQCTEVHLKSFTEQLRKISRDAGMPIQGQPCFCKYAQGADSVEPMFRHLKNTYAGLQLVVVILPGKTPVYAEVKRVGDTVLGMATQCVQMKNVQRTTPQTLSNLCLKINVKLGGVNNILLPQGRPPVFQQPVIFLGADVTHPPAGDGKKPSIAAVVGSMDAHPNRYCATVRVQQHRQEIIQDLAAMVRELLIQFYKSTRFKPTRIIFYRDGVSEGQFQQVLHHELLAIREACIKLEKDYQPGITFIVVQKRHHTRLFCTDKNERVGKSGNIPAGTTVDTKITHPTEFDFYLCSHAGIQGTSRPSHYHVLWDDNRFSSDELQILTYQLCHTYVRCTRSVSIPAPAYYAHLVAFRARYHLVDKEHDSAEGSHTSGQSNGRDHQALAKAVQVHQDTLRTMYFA

B1: PepSpot array peptide 12 (peptide)
peptide: VERTPLPSAPVLPEL
notes: 15-mer of the MSI1 C-terminus spotted on the PepSpot membrane; also called Index 12
binding result: no binding

B3: PepSpot array peptide 13 (peptide)
peptide: SAPVLPELTAIPLTA
notes: 15-mer of the MSI1 C-terminus spotted on the PepSpot membrane; also called Index 13
binding result: no binding

B5: PepSpot array peptide 15 (peptide)
peptide: AYGPMAAAAAAAAVV
notes: 15-mer of the MSI1 C-terminus spotted on the PepSpot membrane; also called Index 15
binding result: no binding

B7: PepSpot array peptide 23 (peptide)
peptide: QDSGVSSYISAASPA
notes: 15-mer of the MSI1 C-terminus spotted on the PepSpot membrane; also called Index 23
binding result: no binding

B8: PepSpot array peptide 21 (peptide)
peptide: TSPGPMAELYGAANQ
notes: 15-mer of the MSI1 C-terminus spotted on the PepSpot membrane; also called Index 21
binding result: no binding

Continued, values first:

binding result: no binding
B2: PepSpot array peptide 22 (peptide)
peptide: ELYGAANQDSGVSSY
notes: 15-mer of the MSI1 C-terminus spotted on the PepSpot membrane; also called Index 22

binding result: no binding
B4: PepSpot array peptide 14 (peptide)
peptide: LTAIPLTAYGPMAAA
notes: 15-mer of the MSI1 C-terminus spotted on the PepSpot membrane; also called Index 14

binding result: no binding
B6: PepSpot array peptide 16 (peptide)
peptide: AAAAAAVVRGTGSHP
notes: 15-mer of the MSI1 C-terminus spotted on the PepSpot membrane; also called Index 16
